Laboratory results from the supplement of paper PMC10567573.
± gives the standard deviation.

Assay: protein stability index of a GFP-peptide fusion (GPS, HEK-293T) (PSI 1-6); higher = more stable
[1] = treatment: DMSO, c terminus: a fixed tail appended
[2] = treatment: MLN4924 1 uM, 8 h, c terminus: a fixed tail appended
[3] = treatment: DMSO, c terminus: native
[4] = treatment: MLN4924 1 uM, 8 h, c terminus: native
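Further: 24-mer peptide tiles fused after GFP, lentivirally expressed, FACS-sorted into six equal bins by GFP/DsRed ratio, decoded by Illumina sequencing, PSI is the read-weighted mean bin number.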

Row | Sequence | protein stability index [1] | protein stability index [2] | protein stability index [3] | protein stability index [4]
1 | VTFRDVAVDFTQEEWGQLDPTQRI [ZNF8] | 3.8 ± 0.36 | 3.82 ± 0.33 | – | –
2 | EVTDTGDPIVRPLWWIAPGDETAH [MYORG] | 4.25 ± 0.28 | 4.38 ± 0.35 | – | –
3 | TLELCHDELFADLFNSNHKAGGAG [CEBPD] | – | 4.24 ± 1 | – | –
4 | EIDEKVTDLVQFLLFKYQMKEPIT [MAGEA10] | 2.35 ± 0.5 | 1.75 ± 0.3 | – | –
5 | QKLDAFLQPLSKPLSSQPQAIVTE [MLH1] | 4.17 ± 0.3 | 4.21 ± 0.21 | – | –
6 | EMETLETSTKTDSEEGSWAQTLAY [PPFIA4] | 5.04 ± 0.15 | 4.62 ± 0.069 | – | –
7 | VQYLGQAPELLGGAEPGTYLTGTI [ADAMTS4] | 2.33 ± 0.7 | 2.98 ± 0.72 | – | –
8 | SKTVTSTMLGVFREDPKTREEFLT [GCH1] | 4.12 ± 0.1 | 4.11 ± 0.24 | – | –
9 | GVPPLKLCKNLNREAQQYSEALAS [GLIPR2] | 3.89 ± 0.44 | 3.96 ± 0.14 | – | –
10 | EAKEAKGSGYEKLGPSRDPDPLNI [RTP4] | 4.9 ± 0.21 | 4.91 ± 0.18 | – | –
11 | HSQRTALHLAAQKALRTISTGRI [INVS] | – | – | 3.08 ± 0.9 | 2.36 ± 0.086
12 | LYPDLSCPEGLEELLSAPPPDLGA [SPSB2] | 4.27 ± 0.14 | 4.46 ± 0.12 | – | –
13 | NKLWELCCQWLKPKMRSKEQILEL [ZNF449] | 2.62 ± 0.35 | 2.9 ± 0.56 | – | –
14 | GVIQSVSSWKHGSGTQYVSTRQTQ [C18orf25] | 3.19 ± 0.11 | 3.52 ± 0.35 | – | –
15 | HRDLKPENLLLASKLKGAAVKLAD [CAMK2A] | 3.67 ± 0.22 | 3.62 ± 0.091 | – | –
16 | EYLIRLFQEWEAHRNLSQLPNFAF [TCF25] | 2.32 ± 0.7 | 2.39 ± 0.24 | – | –
17 | ATQMMVDIDGDVLVFLELAQFHCA [RHOBTB2] | 3.08 ± 0.33 | 2.89 ± 0.75 | – | –
18 | SNGSMHNYCPQQTKITSAFKYINT [EDNRA] | 2.36 ± 0.35 | 2.6 ± 0.26 | – | –
19 | AREGRETLKCLSHHVADAYTSSQK [TOR1AIP2] | 4.48 ± 0.35 | 4.44 ± 0.37 | – | –
20 | EEAKGALLGTSGLKRRFSRLENRY [DAPK3] | 3.8 ± 0.29 | 3.96 ± 0.51 | – | –
21 | VDWRRVSRLQEDPEGTENPLGVDE [SLA] | 4.46 ± 0.36 | – | – | –
22 | SGISFPSVVDHPMPEERASKYENY [HESX1] | 4.25 ± 0.32 | 4.22 ± 0.3 | – | –
23 | GAERLDALLADEERCLSCILAQQP [TRADD] | 3.59 ± 0.25 | 3.83 ± 0.28 | – | –

Row | Sequence | protein stability index [1] | protein stability index [2] | protein stability index [3] | protein stability index [4]
24 | RRKPDPPKDENERSTCNVVQDEFL [DLC1] | 5.27 ± 0.1 | 5.33 ± 0.13 | – | –
25 | HPRGWNDHVHILDTETFTWSQPIT [KLHDC2] | 2.42 ± 0.29 | 2.71 ± 0.54 | – | –
26 | PDFNPEKHGSLNRYHNSHPLRERA [YJU2B] | 4.36 ± 0.21 | 4.37 ± 0.29 | – | –
27 | LQEVPTGLDSISHDSANCELPLLT [ETS2] | 4.71 ± 0.12 | 4.92 ± 0.42 | – | –
28 | FVFSTEERTQLRLESLEDTHIMKG [TRIB1] | 2.85 ± 0.63 | 3.36 ± 0.41 | – | –
29 | HRRDGKWQNVHFHCSGAPVAPLQ [CAMK2B] | – | – | 2.39 ± 0.31 | 2.6 ± 0.34
30 | LFVTVTAVNLSVSTLPSLREEEEQ [KCNG1] | 2.13 ± 0.34 | 2.18 ± 0.45 | – | –
31 | TAYSRLNETQPIDLSGLPLQSSKN [RNF180] | 3.76 ± 0.27 | 3.86 ± 0.25 | – | –
32 | KILYDDGKMVEEVDGRATQKLIVN [PTPRD] | 3.92 ± 0.34 | 3.605 ± 0.004 | – | –
33 | SHCDSPSPQEDGQIMFDVEMHTSR [BNIP3L] | 4.79 ± 0.31 | 4.8 ± 0.38 | – | –
34 | EYRQKHGVPPLKLCKNLNREAQQY [GLIPR2] | 3.42 ± 0.16 | 3.4 ± 0.28 | – | –
35 | ENELMISYLMFLQILVYFSFMSW [FAM98B] | – | – | 3.17 ± 0.67 | 3.26 ± 0.33
36 | TSYYIRYRGAVYADSGNFKRCINL [FEM1C] | 2.48 ± 0.51 | 2.33 ± 0.57 | – | –
37 | LDHLSLGEEPVPHQQVEEALSFTL [NEK8] | 4.1 ± 0.35 | 4 ± 0.29 | – | –
38 | CIPASSSFVYGAVPIGASIYVIGD [GAN] | 2.97 ± 0.65 | 2.48 ± 0.61 | – | –
39 | KGGVQNFNKDLVQDCGFEHLVPVI [CEP70] | 2.53 ± 0.13 | 3.18 ± 0.46 | – | –
40 | LDLRVKGILSSQAEGLANGPDVLE [EHMT1] | 4.12 ± 0.2 | 4.07 ± 0.39 | – | –
41 | PCVAESPTVHVEVHQRGSSTAKKE [TRIP13] | 5.42 ± 0.39 | 5.35 ± 0.087 | – | –
42 | HEVKDNYIPVIKRALNSVPVIIAA [RHOBTB3] | 2.34 ± 0.34 | 2.18 ± 0.17 | – | –
43 | EGENYQKGERGEDSSEEKHLEEPG [CHGB] | 5.63 ± 0.39 | 5.57 ± 0.32 | – | –
44 | WDPACLPLPPPPPAFKSMEVANFY [CEBPB] | 3.02 ± 0.28 | 3.28 ± 0.47 | – | –
45 | GNPSTNSRVTASSGITIPKPPKPP [SMARCE1] | 4.67 ± 0.32 | 4.7 ± 0.13 | – | –
46 | GKGDDSETDKNNCSNAKAVETDV [KCNA4] | – | – | 5.13 ± 0.28 | 5.52 ± 0.38

Row | Sequence | protein stability index [1] | protein stability index [2] | protein stability index [3] | protein stability index [4]
47 | KAILDAEPGPRPALQPSPSIRLPL [TBC1D10A] | 4.27 ± 0.15 | 4.34 ± 0.059 | – | –
48 | QHVPEELDLSSSSQMSPLSLYGEN [ATF6] | 4.97 ± 0.19 | 5 ± 0.18 | – | –
49 | NKTKPIWTRNPDDITQEEYGEFYK [HSP90AB1] | 4.36 ± 0.42 | 4.49 ± 0.44 | – | –
50 | PELTPEEEQATKQFLEEINKWTVQ [PTPN9] | 5.01 ± 0.23 | 4.86 ± 0.12 | – | –
51 | QFHALQSKLEERFGPDSKSSALAC [NCF4] | 3.5 ± 0.28 | 3.6 ± 0.54 | – | –
52 | GLANSSRVRGRVGTIRPVRCPSSS [C22orf15] | 4.12 ± 0.14 | 4.23 ± 0.21 | – | –
53 | EVLGPLCLMLLMGTVHCQIVSTQI [PHTF1] | 3.27 ± 0.15 | 3.19 ± 0.2 | – | –
54 | QLSPNLDLDPLELIALANRFCLPH [RHOBTB1] | 2.27 ± 0.11 | 2.44 ± 0.11 | – | –
55 | MCYGYGCGCGSFCRLGYGCGYEGC [KRTAP19-2] | 2.35 ± 0.23 | 2.43 ± 0.54 | – | –
56 | GGAQASGTLIGVGQSVTAVGRIIA [MFSD9] | 3.38 ± 0.34 | 3.42 ± 0.2 | – | –
57 | EKLTKITRTGPSAWETKKILAVSF [PCMTD2] | 2.57 ± 0.57 | 2.37 ± 0.66 | – | –
58 | IEARRRALKRFVNLVARHPLFSED [SNX8] | 2.37 ± 0.67 | 2.61 ± 0.43 | – | –
59 | YDFMNSAFSPIVILTERVSLPFKP [MIA2] | 2.22 ± 0.62 | 2.17 ± 0.18 | – | –
60 | PLWPGKSDVDQLYLIIRTLGKLIP [CDKL4] | 3.04 ± 0.39 | 2.34 ± 0.61 | – | –
61 | WDMNSAPRLVSETAERKQEQKTGT [MFSD9] | 5.44 ± 0.2 | 5.38 ± 0.13 | – | –
62 | IKIVLINSFGAILQGSLFGLAGLL [SLC29A1] | 2.72 ± 0.32 | 3.25 ± 0.2 | – | –
63 | QKLREESAARVVLTSLLACLPAGP [DUSP5] | 2.15 ± 0.26 | 2.06 ± 0.13 | – | –
64 | IEVQPNFEVPYYNRGLILYRLGYF [TTC32] | 3.17 ± 0.4 | 2.73 ± 0.38 | – | –
65 | PNILFYASTVLKSVGFQSNEAASL [SLC2A12] | 2.25 ± 0.33 | 2.38 ± 0.15 | – | –
66 | SMLPPVNFSIVPYEKKFDTFIPLE [SPATS1] | 2.6 ± 0.26 | 2.49 ± 0.1 | – | –
67 | DLTASHDAALLEMENNHTVAITIL [MTUS2] | 2.86 ± 0.21 | 2.85 ± 0.25 | – | –
68 | GLEDAGLDPHFVPTELWPQEAVPL [TEX19] | 4.44 ± 0.13 | 4.62 ± 0.12 | – | –
69 | LACGTMSSTCGQLASYPLALVRTR [SLC25A25] | 1.96 ± 0.16 | 2.36 ± 0.12 | – | –

Row | Sequence | protein stability index [1] | protein stability index [2] | protein stability index [3] | protein stability index [4]
70 | SKLKGAAVKLADFGLAIEVEGEQQ [CAMK2A] | 4.06 ± 0.11 | 4.4 ± 0.31 | – | –
71 | KEAQYIRTERVEQAFRAIDRGDYY [PCMTD1] | 3.31 ± 0.33 | 3.34 ± 0.28 | – | –
72 | AQAQALAAQAAAAAHAAQAHRERN [PI4K2A] | 4.9 ± 0.076 | 4.8 ± 0.12 | – | –
73 | STDTESNNEEQRSGLIYLTNHIAP [IKZF1] | 4.63 ± 0.2 | 4.81 ± 0.21 | – | –
74 | TNPDLYPVRRIDGLTDVSQIITVT [IQUB] | 2.86 ± 0.26 | 3.06 ± 0.26 | – | –
75 | TSHSLPESSVPSTVGCSSQHTPDQ [PLEKHN1] | 5.36 ± 0.17 | 5.28 ± 0.16 | – | –
76 | LHAWQINWPARQRGTHAVVGVATA [SPSB4] | 2.39 ± 0.25 | 2.31 ± 0.21 | – | –
77 | AACSSKRSPIIDVKNDRDRVGHKS [SERPINB5] | 4.85 ± 0.35 | 4.77 ± 0.11 | – | –
78 | CRVFWWLGDRDRSRAALVCRKWNQ [FBXO39] | 2.46 ± 0.87 | 2.06 ± 0.41 | – | –
79 | GDDFELLDQSELSQLDPASSRSH [RETREG3] | – | – | 4.75 ± 0.29 | 4.85 ± 0.4
80 | TINNFSFCREEMGEVLKSSTFSSG [SPOPL] | 2.33 ± 0.21 | 2.53 ± 0.28 | – | –
81 | MQPESGANGTVIAEFILLGLLEAP [OR3A1] | 2.18 ± 0.24 | 2.33 ± 0.42 | – | –
82 | LLAKMFGAKDSELASQNKPLWQCY [PDS5B] | 2.57 ± 0.66 | 2.3 ± 0.31 | – | –
83 | PDMETKLLFMTSRVRFGQQKRYQD [INTS3] | 2.92 ± 0.24 | 3.09 ± 0.32 | – | –
84 | WMHTPEALSKHFIPYNAKFLGSTE [GULP1] | 2.27 ± 0.12 | 2.3 ± 0.16 | – | –
85 | KELGQSQKEQGLSDNILSPVMNGG [PDZK1] | 4.73 ± 0.34 | 5.09 ± 0.28 | – | –
86 | SDSLLQSWNSQSSLLDVQRVPSFE [ETS2] | 3.92 ± 0.3 | 3.76 ± 0.17 | – | –
87 | VILFSSAVYFAEADDPTSGFSSIP [KCNA3] | 3.01 ± 1.6 | 2.56 ± 1.1 | – | –
88 | LQLLHECSPSQMDLLCAQLQLPQL [FANCE] | 2.33 ± 0.27 | 2.49 ± 0.11 | – | –
89 | QLLKNNEKLITWLNKELNENQLVR [SASS6] | 1.88 ± 0.62 | 2.08 ± 0.38 | – | –
